{
  "source": "patent US20210380994A1",
  "about": "“LACTOCOCCUS LACTIS EXPRESSION SYSTEM FOR DELIVERING PROTEINS EFFICACIOUS FOR THE TREATMENT OF EPITHELIAL BARRIER FUNCTION DISORDERS” (Second Genome, Inc., priority 2018, published 2021)",
  "conditions": "for Carbamidomethy C147, VDGEICYVSCQNVK (SEQ ID NO: 18) / Carbamidomethy C151, VDGEICYVSCQNVK (SEQ ID NO: 18): artificial carbamidomethylation by iodoacetamide",
  "note": "Read-outs that look alike come from different tables or passages of the source.",
  "data": [
    {"molecule": "SG-11: Roseburia hominis protein comprising SEQ ID NO:3; tested as SEQ ID NO:5, SEQ ID NO:7 or FLAG-tagged SEQ ID NO:9 (protein, listed as Rosburia hominis) LEGEESVVYVGKKGVIASLDVETLDQSYYDETELKSYVDAEVEDYTAEHGKNAVKVESLKVEDGVAKLKMKYKTPEDYTAFNGIELYQGKVVASLAAGYVYDGEFARVEEGKVVGAATKQDIYSEDDLKVAIIRANTDVKVDGEICYVSCQNVKLTGKDSVSIRDGYYLETGSVTASVDVTGQESVGTEQLSGTEQMEMTGEPVNADDTEQTEAAAGDGSFETDVYTFIVYK", "values": [
      {"measurement": "Deamidation N137, ANTDVK (SEQ ID NO: 27)", "setting": "No treatment", "result": 1.04, "unit": "%"},
      {"measurement": "Deamidation N153, VDGEICYVSCQNVK (SEQ ID NO: 18)", "setting": "No treatment", "result": 0.02, "unit": "%"},
      {"measurement": "Deamidation Q30, GVIASLDVETLDQSYYDETELK (SEQ ID NO: 25)", "setting": "No treatment", "result": 0, "unit": "%"},
      {"measurement": "Deamidation Q152 Deamidation N153 Carbamidomethy C151, VDGEICYVSCQNVK (SEQ ID NO: 18)", "setting": "No treatment", "result": 0, "unit": "%"},
      {"measurement": "No modification, ANTDVK (SEQ ID NO: 27)", "setting": "No treatment", "result": 98.96, "unit": "%"},
      {"measurement": "No modification, GVIASLDVETLDQSYYDETELK (SEQ ID NO: 25)", "setting": "No treatment", "result": 100, "unit": "%"},
      {"measurement": "No modification, GYYLETGSV...TFIVYK (SEQ ID NO: 29)", "setting": "No treatment", "result": 100, "unit": "%"},
      {"measurement": "No modification, MLEGEESVVYVGK (SEQ ID NO: 24)", "setting": "No treatment", "result": 99.78, "unit": "%"},
      {"measurement": "No modification, TPEDYTAFNGIELYQGX (SEQ ID NO: 26)", "setting": "No treatment", "result": 82.57, "unit": "%"},
      {"measurement": "No modification, VDGEICYVSCQNVK (SEQ ID NO: 18)", "setting": "No treatment", "result": 99.98, "unit": "%"},
      {"measurement": "Oxidation M2.00, GYYLETGSV...TFIVYK (SEQ ID NO: 29)", "setting": "No treatment", "result": 0, "unit": "%"},
      {"measurement": "Oxidation M198, GYYLETGSV...TFIVYK (SEQ ID NO: 29)", "setting": "No treatment", "result": 0, "unit": "%"},
      {"measurement": "Oxidation of M, MLEGEESVVYVGK (SEQ ID NO: 24)", "setting": "No treatment", "result": 0.22, "unit": "%"},
      {"measurement": "Deamdation N206, GYYLETGSV...TFIVYK (SEQ ID NO: 29)", "setting": "Oxidation (H2O2)", "result": 0, "unit": "%"},
      {"measurement": "Deamidation N83, TPEDYTAFNGIELYQGX (SEQ ID NO: 26)", "setting": "Oxidation (H2O2)", "result": 37, "unit": "%"},
      {"measurement": "Deamidation N83 Deamidation Q89, TPEDYTAFNGIELYQGX (SEQ ID NO: 26)", "setting": "Oxidation (H2O2)", "result": 0, "unit": "%"},
      {"measurement": "Deamidation N137, ANTDVK (SEQ ID NO: 27)", "setting": "Oxidation (H2O2)", "result": 16.44, "unit": "%"},
      {"measurement": "Deamidation N153, VDGEICYVSCQNVK (SEQ ID NO: 18)", "setting": "Oxidation (H2O2)", "result": 0, "unit": "%"},
      {"measurement": "Deamidation Q30, GVIASLDVETLDQSYYDETELK (SEQ ID NO: 25)", "setting": "Oxidation (H2O2)", "result": 0.07, "unit": "%"},
      {"measurement": "Deamidation Q152 Deamidation N153 Carbamidomethy C151, VDGEICYVSCQNVK (SEQ ID NO: 18)", "setting": "Oxidation (H2O2)", "result": 0.31, "unit": "%"},
      {"measurement": "No modification, ANTDVK (SEQ ID NO: 27)", "setting": "Oxidation (H2O2)", "result": 83.56, "unit": "%"},
      {"measurement": "No modification, GVIASLDVETLDQSYYDETELK (SEQ ID NO: 25)", "setting": "Oxidation (H2O2)", "result": 99.93, "unit": "%"},
      {"measurement": "No modification, GYYLETGSV...TFIVYK (SEQ ID NO: 29)", "setting": "Oxidation (H2O2)", "result": 19.17, "unit": "%"},
      {"measurement": "No modification, MLEGEESVVYVGK (SEQ ID NO: 24)", "setting": "Oxidation (H2O2)", "result": 99.88, "unit": "%"},
      {"measurement": "No modification, TPEDYTAFNGIELYQGX (SEQ ID NO: 26)", "setting": "Oxidation (H2O2)", "result": 63, "unit": "%"},
      {"measurement": "No modification, VDGEICYVSCQNVK (SEQ ID NO: 18)", "setting": "Oxidation (H2O2)", "result": 63.23, "unit": "%"},
      {"measurement": "Oxidation M2.00, GYYLETGSV...TFIVYK (SEQ ID NO: 29)", "setting": "Oxidation (H2O2)", "result": 63.9, "unit": "%"},
      {"measurement": "Oxidation M198, GYYLETGSV...TFIVYK (SEQ ID NO: 29)", "setting": "Oxidation (H2O2)", "result": 16.92, "unit": "%"},
      {"measurement": "Oxidation of M, MLEGEESVVYVGK (SEQ ID NO: 24)", "setting": "Oxidation (H2O2)", "result": 0.12, "unit": "%"},
      {"measurement": "Carbamidomethy C147, VDGEICYVSCQNVK (SEQ ID NO: 18)", "setting": "Oxidation (H2O2)", "result": 34.52, "unit": "%"},
      {"measurement": "Carbamidomethy C151, VDGEICYVSCQNVK (SEQ ID NO: 18)", "setting": "Oxidation (H2O2)", "result": 1.93, "unit": "%"},
      {"measurement": "Observation of solution", "setting": "Oxidation: Hydroperoxide (0.005%) 40° C., 16 hr", "result": "clear"},
      {"measurement": "Observation of solution", "setting": "Temperature (2 weeks) 4° C.", "result": "clear"},
      {"measurement": "Observation of solution", "setting": "Temperature (2 weeks) 25° C.", "result": "clear"},
      {"measurement": "Observation of solution", "setting": "Temperature (2 weeks) 37° C.", "result": "clear"},
      {"measurement": "Observation of solution", "setting": "Temperature (2 weeks) 40° C.", "result": "clear"},
      {"measurement": "Observation of solution", "setting": "pH 4 and pH 9", "result": "clear"},
      {"measurement": "Deamdation N206, GYYLETGSV...TFIVYK (SEQ ID NO: 29)", "setting": "pH 9", "result": 11.84, "unit": "%"},
      {"measurement": "Deamidation N83, TPEDYTAFNGIELYQGX (SEQ ID NO: 26)", "setting": "pH 9", "result": 19.1, "unit": "%"},
      {"measurement": "Deamidation N83 Deamidation Q89, TPEDYTAFNGIELYQGX (SEQ ID NO: 26)", "setting": "pH 9", "result": 0, "unit": "%"},
      {"measurement": "Deamidation N137, ANTDVK (SEQ ID NO: 27)", "setting": "pH 9", "result": 23.95, "unit": "%"},
      {"measurement": "Deamidation N153, VDGEICYVSCQNVK (SEQ ID NO: 18)", "setting": "pH 9", "result": 0.35, "unit": "%"},
      {"measurement": "Deamidation Q30, GVIASLDVETLDQSYYDETELK (SEQ ID NO: 25)", "setting": "pH 9", "result": 0.05, "unit": "%"},
      {"measurement": "Deamidation Q152 Deamidation N153 Carbamidomethy C151, VDGEICYVSCQNVK (SEQ ID NO: 18)", "setting": "pH 9", "result": 28, "unit": "%"},
      {"measurement": "No modification, ANTDVK (SEQ ID NO: 27)", "setting": "pH 9", "result": 76.05, "unit": "%"},
      {"measurement": "No modification, GVIASLDVETLDQSYYDETELK (SEQ ID NO: 25)", "setting": "pH 9", "result": 99.95, "unit": "%"},
      {"measurement": "No modification, GYYLETGSV...TFIVYK (SEQ ID NO: 29)", "setting": "pH 9", "result": 88.16, "unit": "%"},
      {"measurement": "No modification, MLEGEESVVYVGK (SEQ ID NO: 24)", "setting": "pH 9", "result": 99.94, "unit": "%"},
      {"measurement": "No modification, TPEDYTAFNGIELYQGX (SEQ ID NO: 26)", "setting": "pH 9", "result": 80.9, "unit": "%"},
      {"measurement": "No modification, VDGEICYVSCQNVK (SEQ ID NO: 18)", "setting": "pH 9", "result": 8.76, "unit": "%"},
      {"measurement": "Oxidation M2.00, GYYLETGSV...TFIVYK (SEQ ID NO: 29)", "setting": "pH 9", "result": 0, "unit": "%"},
      {"measurement": "Oxidation M198, GYYLETGSV...TFIVYK (SEQ ID NO: 29)", "setting": "pH 9", "result": 0, "unit": "%"},
      {"measurement": "Oxidation of M, MLEGEESVVYVGK (SEQ ID NO: 24)", "setting": "pH 9", "result": 0.61, "unit": "%"},
      {"measurement": "Carbamidomethy C147, VDGEICYVSCQNVK (SEQ ID NO: 18)", "setting": "pH 9", "result": 71.71, "unit": "%"},
      {"measurement": "Carbamidomethy C151, VDGEICYVSCQNVK (SEQ ID NO: 18)", "setting": "pH 9", "result": 12.45, "unit": "%"}
    ]}
  ]
}
